Measured values taken from patent US20250152743A1, “SYNPOPTOSIS CIRCUITS FOR PROGRAMMABLE CELL DEATH CONTROL” (California Institute of Technology, priority 2023, published 2025).

Biological target: Caspase-3-L-tev-S (Homo sapiens (Human)) (UniProt P42574)
Experiment: cell-based or functional assay

membrane-bound TEVP (CAAX) (enzyme)
cell death of polytransfected HEK293 cells, Annexin V staining and flow cytometry: 40 % cell death
